Measured values: US11932908B2, “Compositions and methods for diagnosis and treatment of epilepsy” (THE REGENTS OF THE UNIVERSITY OF CALIFORNIA, priority 2004, dated 2024)
Entries after “also recorded” stand apart in the source; their conditions may differ. Read-outs that look alike come from different tables or passages of the source.

Columns and labels:
R-type VDCC (Cav2.3) = target: T1, R-type VDCC (Cav2.3) (Oryctolagus cuniculus, UniProt Q02343); assay: Patch-clamp analyses of BHK cells stably expressing Cav2.3 transfected with EFHC1 constructs; type: cell-based; conditions: whole cell patch-clamp, 24-48 hr after transfection
T1 construct: expressed in transfected cells; host or cells: BHK (BII-104-2) cells
Method: Electrophysiological analysis. A baby hamster kidney (BHK) cell line BHK (BII-104-2) stably transfected with the ociE (BII), α2/δ and β1a subunits, were cultured in DMEM medium containing 10% fetal bovine serum (FBS), 30 U/mL penicillin and 30 μg/mL streptomycin. To transiently express wild type or mutant EFHC1, BHK (BII-104-2) cells were transfected with the pEGFP-C2 plasmids (Clonetech) containing EGFP fused with cDNA for EFHC1 or its mutants using SuperFect Transfection Reagent (QIAGEN). For control experiments, EGFP was transiently expressed by transfecting BHK (BII-104-2) with the same amount of pEGFP without the EFHC1 inserts. Cells were trypsinized, diluted with the DMEM medium, and plated onto glass coverslips 18 hrs after transfection. Ca^2+ currents were recorded 24-48 hr after transfection from GFP-positive cells. Currents from BHK (BII-104-2) cells were recorded at room temperature (22-25° C.) using patch-clamp techniques of whole cell mode with an EPC-9 amplifier (HEKA, Germany). Patch pipettes were made from borosilicate glass capillaries (1.5 mm outer diameter and 0.87 mm inner diameter; Hilgenberg) by using a model P-97 Flaming-Brown micropipette puller (Sutter Instrument Co., CA). Pipette resistance ranged from 2 to 3 MΩ when filled with the pipette solutions described below. The series resistance was electronically compensated to >70% and both the leakage and the remaining capacitance were subtracted by −P/6 method. Currents were sampled at 100 kHz in activation kinetics, otherwise sampled at 50 kHz and filtered at 10 kHz. Calcium currents were recorded in an external solution that contained (in mM): 3 CaCl2, 148 tetraethylammonium chloride (TEA-C1), 10 glucose, and 10 HEPES, pH adjusted to 7.4 with Tris-OH. The pipette solution contained (in mM): 85 Cs-aspartate, 40 CsCl, 4 MgCl2, 5 EGTA, 2 ATP2Na, 5 HEPES, and 8 creatine-phosphate, pH adjusted to 7.4 with CsOH. To determine voltage-dependence of activation, amplitude of tail currents at −50 mV after 5 ms test pulse (−40 to 90 mV) was normalized to the maximal tail current amplitude. […]

PQ type VDCC (Cav2.1) = target: T2, PQ type VDCC (Cav2.1) (Oryctolagus cuniculus, UniProt P27884); assay: Patch-clamp analyses of HEK cell line with P/Q type VDCCs and wild type EFHC1 or mutant constructs; type: cell-based
T2 construct: expressed in transfected cells; host or cells: HEK cell line

C-terminus of Cav2.3 = assay: Co-immunoprecipitation assay in HEK cells, Cav2.3 C-terminus; type: binding; conditions: tagged proteins co-expressed in HEK cells; listed as WT
Method: (§1) Immunoprecipitation. HEK cells co-transfected with expression constructs were collected 20 hrs post transfection. The cells were washed in PBS, scraped and homogenized in the lysis buffer (10 mM Tris pH 8.0, 150 mM NaCl, 5 mM EDTA) supplemented with protease inhibitors (Complete; Roche). Cellular debris was removed by centrifugation at 12,000×g for 10 min at 4° C. The supernatants were precleared with protein G-Sepharose (Amersham Pharmacia Biotech) for 2 h at 4° C. and then incubated with monoclonal anti-Flag M2-Agarose beads (Sigma) or anti-Myc antibody (Santa Cruz) for 12 hrs at 4° C. Protein G-Sepharose was used for precipitation with anti-Myc antibody. The beads were washed with lysis buffer five times and then eluted either with Flag peptide or SDS sample buffer for immunoblot analyses.
(§2) Western blot analysis. Confluent HEK cells transiently transfected with expression constructs were placed on ice and washed twice with ice-cold PBS. Cells were scraped from the dishes and homogenized in a hypotonic buffer (0.25M sucrose, 10 mM Tris-HCl, 10 mM NaCl, 1 mM EDTA, pH7.5) supplemented with mixture of protease inhibitors (Complete; Roche). The lysate was centrifuged at 3,300 g for 5 min. to remove nuclei and the supernatant was used as total cytosolic protein. […]

C-terminus of Cav2.1 = assay: Co-immunoprecipitation assay in HEK cells, Cav2.1 C-terminus; type: binding; conditions: tagged proteins co-expressed in HEK cells
Method: as §1, §2

C-terminus of Cav2.2 = assay: Co-immunoprecipitation assay in HEK cells, Cav2.2 C-terminus; type: binding; conditions: tagged proteins co-expressed in HEK cells
Method: as §1, §2

Bid = assay: Co-expression with DsRed-Bid vector (marker for caspase activation); type: cell-based; conditions: fetal mouse primary hippocampal neuron
Excerpt: Clarifying the exact stage or stages of apoptosis thru which myoclonin/EFHC1 acts and by what stage JME mutations reverse apoptosis is important for development of a curative treatment. Typically, apoptotic stimuli, through a Bcl-2 family mediated checkpoint, cause redistribution of cytochrome-c from mitochondria to cytosol. Cytosolic cytochrome-c binds to APAF-1 in the presence of dATP or ATP, result in recruitment and activation of caspase 9 and subsequent cleavage of caspase 3. Caspase 3 ultimately produces extensive DNA fragmentation. […] After establishing Bid activation, the next step is to establish that myoclonin acting through Bid, cause mitochondrial cytochrome C release and then caspase 3 activation. After establishing this step, studies will ask whether myoclonin also acts thru the AIF and a caspase 3 independent cell death mechanisms.

[1] = tested on: mouse hippocampal primary culture neurons
Method: Mouse hippocampal neurons primary culture. Hippocampal neurons were isolated from embryonic day 16 mice and plated at 1-2×10^5 cells per well in 24 well plate containing glass coverslips coated with poly-1-lysine and grown in serum-free NEUROBASAL™ media supplemented with B27, 0.5 mM L-glutamine (Invitrogen).
Transfection and immunostaining of mouse hippocampal neurons. […] Cultures were fixed with 4% paraformaldehyde in PBS 16 and 48 hours after transfection, permeabilized with 0.3% Triton X-100, blocked in 3% normal goat serum in PBS, and treated with mouse monoclonal anti-MAP-2 antibody (1:500; Sigma) and Alexa fluor 594 goat anti-mouse IgG antibody (1:1000; Molecular Probes).
TUNEL assay. […] Forty-eight hours after transfection, neuronal apoptosis was detected using DeadEndTM Fluorometric TUNEL System (Promega). Nuclei were visualized with Hoescht 33342 (Molecular Probes). These cells were also stained with anti-Myc antibody (1:200; Cell Signaling) and Alexa fluor 594 goat anti-rabbit IgG antibody (1:1000). All experiments were carried out in duplicate wells and at least repeated three times. Neuron cells were observed on a confocal microscope (OLYMPUS FLUOVIEW) following 48 hours post transfection.
Cell death analyses with EFHC1 mutants. […] Surviving cell numbers were scored by counting GFP fluorescent-positive cells that attached to dishes. At each counting, detached cells (dead cells) were carefully removed by changing culture medium. Morphologies of cells (cell shape, length and number of neurites, shrinkage, etc.) were not considered for the counting. Surviving cell numbers were scored at 24, 36, and 48 hours after transfection. Analyses were repeated twice by using two independently prepared expression construct DNAs. In total, neurons in seven wells of 24 well plates were counted for each transfection and time point. Experiments were performed in a blinded fashion.

T1 sequence (Q02343 whole entry): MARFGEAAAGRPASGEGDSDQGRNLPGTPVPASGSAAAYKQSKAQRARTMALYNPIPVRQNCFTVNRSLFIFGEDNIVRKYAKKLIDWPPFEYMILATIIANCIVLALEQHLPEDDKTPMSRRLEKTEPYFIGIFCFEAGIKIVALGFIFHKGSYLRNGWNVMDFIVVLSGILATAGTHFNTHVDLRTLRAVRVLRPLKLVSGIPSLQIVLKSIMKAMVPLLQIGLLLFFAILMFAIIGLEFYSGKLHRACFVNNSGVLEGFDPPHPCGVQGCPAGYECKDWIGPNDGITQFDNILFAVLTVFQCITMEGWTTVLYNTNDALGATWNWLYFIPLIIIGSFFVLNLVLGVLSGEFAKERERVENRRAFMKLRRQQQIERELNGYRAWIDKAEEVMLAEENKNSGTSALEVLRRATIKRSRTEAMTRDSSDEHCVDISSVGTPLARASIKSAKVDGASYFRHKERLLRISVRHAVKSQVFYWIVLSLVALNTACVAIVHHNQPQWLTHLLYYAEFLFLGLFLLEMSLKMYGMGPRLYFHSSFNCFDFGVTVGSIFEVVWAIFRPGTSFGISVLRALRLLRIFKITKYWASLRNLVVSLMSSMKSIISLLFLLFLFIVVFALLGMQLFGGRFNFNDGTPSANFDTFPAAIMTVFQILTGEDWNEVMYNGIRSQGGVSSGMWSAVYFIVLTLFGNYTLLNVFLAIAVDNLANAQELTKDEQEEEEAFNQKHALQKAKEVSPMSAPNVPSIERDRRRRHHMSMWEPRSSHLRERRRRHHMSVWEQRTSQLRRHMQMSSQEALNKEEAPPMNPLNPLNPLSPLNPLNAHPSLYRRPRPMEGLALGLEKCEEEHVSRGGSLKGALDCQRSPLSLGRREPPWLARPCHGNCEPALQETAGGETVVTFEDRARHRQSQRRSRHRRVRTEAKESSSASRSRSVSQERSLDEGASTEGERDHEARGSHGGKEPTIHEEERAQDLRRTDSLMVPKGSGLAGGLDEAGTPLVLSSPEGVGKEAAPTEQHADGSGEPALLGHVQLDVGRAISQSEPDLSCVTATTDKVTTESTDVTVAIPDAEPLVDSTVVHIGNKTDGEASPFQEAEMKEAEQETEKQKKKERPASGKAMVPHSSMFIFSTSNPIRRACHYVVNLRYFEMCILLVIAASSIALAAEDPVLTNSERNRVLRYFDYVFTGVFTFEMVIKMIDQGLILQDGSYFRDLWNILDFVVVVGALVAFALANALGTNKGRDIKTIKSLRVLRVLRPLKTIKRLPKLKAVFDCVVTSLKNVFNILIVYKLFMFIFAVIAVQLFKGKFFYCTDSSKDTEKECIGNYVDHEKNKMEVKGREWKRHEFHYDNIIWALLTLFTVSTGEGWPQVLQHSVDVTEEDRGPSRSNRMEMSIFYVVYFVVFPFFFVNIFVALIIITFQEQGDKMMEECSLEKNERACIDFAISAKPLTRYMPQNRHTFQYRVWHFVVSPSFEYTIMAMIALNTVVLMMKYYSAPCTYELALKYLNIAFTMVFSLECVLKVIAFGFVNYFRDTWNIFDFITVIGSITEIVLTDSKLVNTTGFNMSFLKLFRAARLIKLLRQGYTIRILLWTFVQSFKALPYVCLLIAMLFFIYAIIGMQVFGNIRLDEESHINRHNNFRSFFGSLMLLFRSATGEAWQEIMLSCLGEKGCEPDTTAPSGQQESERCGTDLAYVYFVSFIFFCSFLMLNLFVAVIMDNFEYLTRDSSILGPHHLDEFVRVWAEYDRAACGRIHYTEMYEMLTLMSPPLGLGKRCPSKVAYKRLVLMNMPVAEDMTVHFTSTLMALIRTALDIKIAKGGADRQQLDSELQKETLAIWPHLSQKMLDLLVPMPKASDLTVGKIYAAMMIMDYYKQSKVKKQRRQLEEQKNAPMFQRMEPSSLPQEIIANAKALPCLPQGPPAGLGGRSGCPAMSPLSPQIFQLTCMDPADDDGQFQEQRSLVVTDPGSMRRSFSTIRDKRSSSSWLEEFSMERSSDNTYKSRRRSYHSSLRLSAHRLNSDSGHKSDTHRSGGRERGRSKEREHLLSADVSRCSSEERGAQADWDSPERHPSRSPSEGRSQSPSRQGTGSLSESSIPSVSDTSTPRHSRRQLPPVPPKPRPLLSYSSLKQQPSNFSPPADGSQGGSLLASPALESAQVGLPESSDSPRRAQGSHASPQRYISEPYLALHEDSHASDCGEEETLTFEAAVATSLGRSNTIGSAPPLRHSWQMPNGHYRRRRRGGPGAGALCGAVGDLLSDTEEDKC
T1 sequence (P13806 27-1106 partner): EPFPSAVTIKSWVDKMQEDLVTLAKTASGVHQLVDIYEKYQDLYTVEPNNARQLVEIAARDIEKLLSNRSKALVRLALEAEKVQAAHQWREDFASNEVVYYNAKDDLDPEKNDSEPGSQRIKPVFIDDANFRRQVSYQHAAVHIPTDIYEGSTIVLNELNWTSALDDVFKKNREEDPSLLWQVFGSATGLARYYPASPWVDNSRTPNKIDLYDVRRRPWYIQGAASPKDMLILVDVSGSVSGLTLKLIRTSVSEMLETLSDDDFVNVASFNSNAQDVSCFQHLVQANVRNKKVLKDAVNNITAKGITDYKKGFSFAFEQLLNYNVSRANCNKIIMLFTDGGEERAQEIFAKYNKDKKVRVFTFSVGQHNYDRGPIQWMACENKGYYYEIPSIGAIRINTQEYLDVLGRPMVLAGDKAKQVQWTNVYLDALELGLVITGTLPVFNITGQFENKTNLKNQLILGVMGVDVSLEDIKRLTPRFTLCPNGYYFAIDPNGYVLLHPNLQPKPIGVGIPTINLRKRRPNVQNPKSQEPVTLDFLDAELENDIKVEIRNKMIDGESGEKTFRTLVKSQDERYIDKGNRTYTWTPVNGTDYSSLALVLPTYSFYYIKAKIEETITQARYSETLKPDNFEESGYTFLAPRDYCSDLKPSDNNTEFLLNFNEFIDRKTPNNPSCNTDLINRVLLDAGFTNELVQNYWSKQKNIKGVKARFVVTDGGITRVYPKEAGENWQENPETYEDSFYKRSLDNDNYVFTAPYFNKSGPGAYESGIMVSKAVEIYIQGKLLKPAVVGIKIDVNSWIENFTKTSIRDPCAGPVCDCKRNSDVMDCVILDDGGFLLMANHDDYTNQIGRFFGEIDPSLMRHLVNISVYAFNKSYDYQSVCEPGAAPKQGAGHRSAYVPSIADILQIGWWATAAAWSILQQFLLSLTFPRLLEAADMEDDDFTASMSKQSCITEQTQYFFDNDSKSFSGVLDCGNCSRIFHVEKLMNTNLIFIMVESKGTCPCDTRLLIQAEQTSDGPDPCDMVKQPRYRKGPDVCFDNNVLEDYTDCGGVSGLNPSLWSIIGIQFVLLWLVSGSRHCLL
T1 sequence (P19517 whole entry partner): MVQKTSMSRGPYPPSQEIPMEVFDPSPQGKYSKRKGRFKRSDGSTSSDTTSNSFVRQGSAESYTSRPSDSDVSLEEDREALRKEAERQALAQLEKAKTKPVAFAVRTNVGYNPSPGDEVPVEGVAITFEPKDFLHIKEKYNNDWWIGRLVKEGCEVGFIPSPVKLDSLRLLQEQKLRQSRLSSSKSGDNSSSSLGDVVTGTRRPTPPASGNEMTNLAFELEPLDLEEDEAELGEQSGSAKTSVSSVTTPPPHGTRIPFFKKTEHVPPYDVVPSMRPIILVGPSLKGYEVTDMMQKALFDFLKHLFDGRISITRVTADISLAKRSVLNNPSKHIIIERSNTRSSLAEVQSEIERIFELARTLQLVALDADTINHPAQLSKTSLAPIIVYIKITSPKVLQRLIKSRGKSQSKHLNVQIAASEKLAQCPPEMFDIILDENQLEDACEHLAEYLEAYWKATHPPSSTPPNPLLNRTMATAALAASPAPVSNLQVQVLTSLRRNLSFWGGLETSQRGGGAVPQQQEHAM

B1: EFHC1: myoclonin 1, a 640 amino acid protein with an EF-hand motif encoded by EFHC1 transcript A (SEQ ID NO: 4) (protein, listed as Homo sapiens)
chain: MVSNPVHGLPFLPGTSFKDSTKTAFHRSQTLSYRNGYAIVRRPTVGIGGDRLQFNQLSQAELDELASKAPVLTYGQPKQAPPADFIPAHVAFDKKVLKFDAYFQEDVPMSTEEQYRIRQVNIYYYLEDDSMSVIEPVVENSGILQGKLIKRQRLAKNDRGDHYHWKDLNRGINITIYGKTFRVVDCDQFTQVFLESQGIELNPPEKMALDPYTELRKQPLRKYVTPSDFDQLKQFLTFDKQVLRFYAIWDDTDSMYGECRTYIIHYYLMDDTVEIREVHERNDGRDPFPLLMNRQRVPKVLVENAKNFPQCVLEISDQEVLEWYTAKDFIVGKSLTILGRTFFIYDCDPFTRRYYKEKFGITDLPRIDVSKREPPPVKQELPPYNGFGLVEDSAQNCFTLIPKAPKKDVIKMLVNDNKVLRYLAVLESPIPEDKDRRFVFSYFLATDMISIFEPPVRNSGIIGGKYLGRTKVVKPYSTVDNPVYYGPSDFFIGAVIEVFGHRFIILDTDEYVLKYMESNAAQYSPEALASIQNHVRKREAPAPEAESKQTEKDPGVQELEALIDTIQKQLKDHSCKDNIREAFQIYDKEASGYVDRDMFFKICESLNVPVDDSLVKELIRMCSHGEGKINYYNFVRAFSN
- R-type Ca2+ current generated by Cav2.3 (R-type VDCC (Cav2.3)): specifically increased; also recorded: significantly increased
- R-type Ca2+ current generated by Cav2.3 (R-type VDCC (Cav2.3); listed as WT EFHC1): significantly up-regulates
- Ca2+ current density of P/Q-type VDCC (Cav2.1) (PQ type VDCC (Cav2.1); cells co-transfected with P/Q-type VDCC and EFHC1 constructs): did not show such increase; also recorded: did not significantly affect
- Activation V0.5 (mV) (PQ type VDCC (Cav2.1); half-maximal voltage of activation, mean ± SEM): 23.9 ± 1.0 mV
- Inactivation V0.5 (mV) (PQ type VDCC (Cav2.1); half-maximal voltage of inactivation, mean ± SEM): −8.0 ± 0.8 mV
- inactivation speed of P/Q type VDCC (decelerating effect on calcium inactivation) (PQ type VDCC (Cav2.1); patch-clamp): significantly decelerated
- voltage dependence of activation (PQ type VDCC (Cav2.1); patch-clamp): did not significantly affect
- voltage dependence of inactivation (PQ type VDCC (Cav2.1); patch-clamp): toward positive potentials
- Activation k (mV) (PQ type VDCC (Cav2.1); slope factor, mean ± SEM): 8.63 ± 0.35 mV
- Inactivation K (mV) (PQ type VDCC (Cav2.1); slope factor, mean ± SEM): 6.73 ± 0.15 mV
- co-immunoprecipitation with Cav2.3 C-terminus (C-terminus of Cav2.3): co-immunoprecipitated
- co-immunoprecipitation with Cav2.1 C-terminus (C-terminus of Cav2.1): did not
- co-immunoprecipitation with Cav2.2 C-terminus (C-terminus of Cav2.2): did not
- Bid activation (Bid): activated Bid in a number of EFHC1-expressing neurons
- neuronal morphology ([1]; 16 hours post-transfection): shorter neurites and lesser branches; also recorded: shorter neurites and fewer branches
- neuronal morphology ([1]; 16 hours post-transfection, listed as GFP-EFHC1): shorter neurites and less branches
- apoptosis (TUNEL) on EFHC1 overexpression ([1]; 48 hours after transfection): induced apoptosis; also recorded: overlap with TUNEL positive cells
- neuronal morphology ([1]; 48 hours post-transfection): signs of neurodegeneration and cell death; also recorded: neurodegeneratve morphologies
- neuronal morphology ([1]; 48 hours post-transfection, listed as GFP-EFHC1): signs of neurodegeneration and cell death
